# Measured values reported in PMC9191634.
# Several values for one entry are separate records, joined by “and”; a condition that tells them apart may be missing. Identical values can stand only once.
# How the values were obtained:
# [1] = target: human voltage-gated proton channel hHv1 (human) (UniProt Q96D96)
# hHv1-D185C (human) = hHv1-D185C (human) (UniProt Q96D96); experiment: whole-cell patch clamp (block of H+ current)
# hHv1-E192C (human) = hHv1-E192C (human) (UniProt Q96D96); experiment: whole-cell patch clamp (block of H+ current)
# hHv1-E196C (human) = hHv1-E196C (human) (UniProt Q96D96); experiment: whole-cell patch clamp (block of H+ current)
# hHv1-G199C (human) = hHv1-G199C (human) (UniProt Q96D96); experiment: whole-cell patch clamp (block of H+ current)
# hHv1-H193C (human) = hHv1-H193C (human) (UniProt Q96D96); experiment: whole-cell patch clamp (block of H+ current)
# hHv1-L200C (human) = hHv1-L200C (human) (UniProt Q96D96); experiment: whole-cell patch clamp (block of H+ current)
# hHv1-L203C (human) = hHv1-L203C (human) (UniProt Q96D96); experiment: whole-cell patch clamp (block of H+ current)
# hHv1-R205N (human) = hHv1-R205N (human) (UniProt Q96D96); experiment: whole-cell patch clamp (block of H+ current)
# hHv1-R211S (human) = hHv1-R211S (human) (UniProt Q96D96); experiment: whole-cell patch clamp (block of H+ current)
# hHv1-V187C (human) = hHv1-V187C (human) (UniProt Q96D96); experiment: whole-cell patch clamp (block of H+ current)
# [2] = target: human voltage-gated proton channel hHv1 (human) (UniProt Q96D96); experiment: whole-cell patch clamp (block of H+ current)
# [3] = target: human voltage-gated proton channel hHv1 (human) (UniProt Q96D96); experiment: whole-cell patch clamp (block of H+ current); as a1 but test pulses to +20 mV
# [4] = target: human voltage-gated proton channel hHv1, Q96D96-1; experiment: whole-cell patch clamp; conditions: +40 mV; HEK293T cells; parent: 0.031 ± 0.003 µM
# C6 peptide = experiment: whole-cell patch clamp; conditions: +40 mV, HEK293T cells; for ratio to parent: parent: est. 1.0, read off a plot
substance,measurement,setting,value
C6 peptide (designed binder),"fraction of H+ current blocked by 250 nM C6, whole-cell patch clamp in HEK293T cells, -20 mV to +40 mV",[1],90%
same,fold enhancement of C6 inhibition against WT hHv1,hHv1-D185C (human),> 4 fold
same,Ki mutation/Ki WT,hHv1-E192C (human),> 43 fold
same,Ki mutation/Ki WT,hHv1-E196C (human),> 43 fold
same,Ki,hHv1-G199C (human),1.9 nM
same,Ki mutation/Ki WT,hHv1-H193C (human),> 43 fold
same,Ki mutation/Ki WT,hHv1-L200C (human),> 43 fold
same,fold enhancement of C6 inhibition against WT hHv1,hHv1-L203C (human),> 4 fold
same,Ki,hHv1-R205N (human),161 nM
same,koff,hHv1-R205N (human),0.19 s⁻¹
same,kon,hHv1-R205N (human),300000 M⁻¹ s⁻¹
same,Ki,hHv1-R211S (human),0.6 nM
same,koff,hHv1-R211S (human),0.0008 s⁻¹
same,kon,hHv1-R211S (human),500000 M⁻¹ s⁻¹
same,Ki mutation/Ki WT,hHv1-V187C (human),> 43 fold
same,kon,[2],300000 M⁻¹ s⁻¹ and 500000 M⁻¹ s⁻¹
same,Ki,[3],4.9 nM
same,koff,[3],0.0043 s⁻¹
same,kon,[3],400000 M⁻¹ s⁻¹
C6 peptide R36A,Ki,[4],15000 nM
human voltage-gated proton channel hHv1 (from UniProt Q96D96-1) A197C,ratio to parent,C6 peptide,7.6
human voltage-gated proton channel hHv1 (from UniProt Q96D96-1) E192A,Ki,C6 peptide; parent: 0.031 ± 0.003 µM,18000 nM
human voltage-gated proton channel hHv1 (from UniProt Q96D96-1) F190C,ratio to parent,C6 peptide,0.62
human voltage-gated proton channel hHv1 (from UniProt Q96D96-1) F195C,ratio to parent,C6 peptide,3.6
human voltage-gated proton channel hHv1 (from UniProt Q96D96-1) I183C,ratio to parent,C6 peptide,1.1
human voltage-gated proton channel hHv1 (from UniProt Q96D96-1) I186C,ratio to parent,C6 peptide,1.4
human voltage-gated proton channel hHv1 (from UniProt Q96D96-1) I202C,ratio to parent,C6 peptide,30
human voltage-gated proton channel hHv1 (from UniProt Q96D96-1) L184C,ratio to parent,C6 peptide,22
human voltage-gated proton channel hHv1 (from UniProt Q96D96-1) L188C,ratio to parent,C6 peptide,11
human voltage-gated proton channel hHv1 (from UniProt Q96D96-1) L189A,ratio to parent,C6 peptide,0.87
human voltage-gated proton channel hHv1 (from UniProt Q96D96-1) L198C,ratio to parent,C6 peptide,1.4
human voltage-gated proton channel hHv1 (from UniProt Q96D96-1) L201C,ratio to parent,C6 peptide,3.6
human voltage-gated proton channel hHv1 (from UniProt Q96D96-1) L203A,ratio to parent,C6 peptide,0.28
human voltage-gated proton channel hHv1 (from UniProt Q96D96-1) L204C,ratio to parent,C6 peptide,2.3
human voltage-gated proton channel hHv1 (from UniProt Q96D96-1) Q191C,ratio to parent,C6 peptide,8.7
human voltage-gated proton channel hHv1 (from UniProt Q96D96-1) Q194C,ratio to parent,C6 peptide,6
human voltage-gated proton channel hHv1 (from UniProt Q96D96-1) V187A,ratio to parent,C6 peptide,130
